B1: DVD3264 (bispecific antibody, IgG1)
VH: EVQLVESGGGLVQPGGSLRLSCAASGFTFSNYGVTWVRQAPGKGLEWVSMIWADGSTHYASSVKGRFTISRDNSKNTLYLQMNSLRAEDTAVYYCAREWQHGPVAYWGQGTLVTVSSASTKGPEVQLQQSGPELVTPGASVKISCKASGYTFTKYWLGWVKQSHGKSLEWIGDIYPGYDYTHYNEKFKDTATLTVDKSSSIAYMEIRGLTSEDSAVYYCARSDGSSTYWGQGTLVTVSA
VL: DIQMTQSPSSLSASVGDRVTITCRASQLVSSAVAWYQQKPGKAPKLLIYWASARHTGVPSRFSGSGSGTDFTLTISSLQPEDFATYYCQQHYKTPFTFGQGTKLEIKRTVAAPDVQMIQSPSSLSASLGDIVTMTCTSSQNIVHSNGNTYLEWFQQKPGKAPKLLIYKVSNRFSGVPSRFSGSRYGTDFTLTISSLEDEDLATYFCFQVSHVPYTFGGGTKLEIKR
B2: DVD3263 (bispecific antibody, IgG1)
VH: EVQLVESGGGLVQPGGSLRLSCAASGFTFSNYGVTWVRQAPGKGLEWVSMIWADGSTHYASSVKGRFTISRDNSKNTLYLQMNSLRAEDTAVYYCAREWQHGPVAYWGQGTLVTVSSGGGGSGGGGSEVQLQQSGPELVTPGASVKISCKASGYTFTKYWLGWVKQSHGKSLEWIGDIYPGYDYTHYNEKFKDTATLTVDKSSSIAYMEIRGLTSEDSAVYYCARSDGSSTYWGQGTLVTVSA
VL: DIQMTQSPSSLSASVGDRVTITCRASQLVSSAVAWYQQKPGKAPKLLIYWASARHTGVPSRFSGSGSGTDFTLTISSLQPEDFATYYCQQHYKTPFTFGQGTKLEIKRGGSGGGGSGDVQMIQSPSSLSASLGDIVTMTCTSSQNIVHSNGNTYLEWFQQKPGKAPKLLIYKVSNRFSGVPSRFSGSRYGTDFTLTISSLEDEDLATYFCFQVSHVPYTFGGGTKLEIKR
B3: DVD3239 (bispecific antibody, IgG1)
VH: EVQLVESGGGLVQPGGSLRLSCAASGFSFSKYWLGWVRQAPGKGLEWVSDIYPGYDYTHYNEKFKDRFTISADTSKNTAYLQMNSLRAEDTAVYYCARSDGSSTYWGQGTLVTVSSASTKGPEVQLVQSGAEVKKPGASVKVSCKASGYTFNNYGIIWVRQAPGQGLEWMGWINTYTGKPTYAQKFQGRVTMTTDTSTSTAYMELSSLRSEDTAVYYCARKLFNTVAVTDNAMDYWGQGTTVTVSS
VL: DIQMTQSPSSLSASVGDRVTITCTSSQNIVHSNGNTYLEWYQQKPGKAPKLLIYKVSNRFSGVPSRFSGSGSGTDFTLTISSLQPEDFATYYCFQVSHVPYTFGQGTKVEIKRTVAAPDIQMTQSPSSLSASVGDRVTITCRASQDIENYLNWYQQKPGKAPKLLIYYTSRLQSGVPSRFSGSGSGTDFTLTISSLQPEDFATYFCQQGNTQPPTFGQGTKLEIKR
B4: DVD3242 (bispecific antibody, IgG1)
VH: EVQLVESGGGLVQPGGSLRLSCAASGFSFSKYWLGWVRQAPGKGLEWVSDIYPGYDYTHYNEKFKDRFTISADTSKNTAYLQMNSLRAEDTAVYYCARSDGSSTYWGQGTLVTVSSASTKGPSVFPLAPEVQLVQSGAEVKKPGASVKVSCKASGYTFNNYGIIWVRQAPGQGLEWMGWINTYTGKPTYAQKFQGRVTMTTDTSTSTAYMELSSLRSEDTAVYYCARKLFNTVAVTDNAMDYWGQGTTVTVSS
VL: B3 VL
B5: DVD3241 (bispecific antibody, IgG1)
VH: B3 VH
VL: DIQMTQSPSSLSASVGDRVTITCTSSQNIVHSNGNTYLEWYQQKPGKAPKLLIYKVSNRFSGVPSRFSGSGSGTDFTLTISSLQPEDFATYYCFQVSHVPYTFGQGTKVEIKRTVAAPSVFIFPPDIQMTQSPSSLSASVGDRVTITCRASQDIENYLNWYQQKPGKAPKLLIYYTSRLQSGVPSRFSGSGSGTDFTLTISSLQPEDFATYFCQQGNTQPPTFGQGTKLEIKR

Biological target: Recombinant Human TNF-α/TNFSF1A (human, UniProt P01375 77-233)
Sequence (P01375 77-233 limits assumed): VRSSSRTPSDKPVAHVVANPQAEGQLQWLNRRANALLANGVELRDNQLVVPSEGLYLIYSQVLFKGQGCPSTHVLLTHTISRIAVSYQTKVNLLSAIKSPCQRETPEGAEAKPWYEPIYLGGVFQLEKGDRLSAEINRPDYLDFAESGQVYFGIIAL
Experiment: cell-based or functional assay

Binder	N-Terminal VD huTNFα Neutralization Assay IC50 [nM]	C-Terminal VD huTNFα Neutralization Assay IC50 [nM]
B1	0.006	–
B2	0.008	–
B3	–	1.62
B4	–	0.13
B5	–	0.112
